Laboratory results reported in patent publication US20250269025A1 (AVENCELL THERAPEUTICS, published 2025).
No end group written: not given here.

Columns and labels:
[1] = target: T1, CD123 on CD123 positive AML cells (Oci-AML3, Molm-13, MV4-11, primary AML cells) (human, UniProt P26951 19-378); assay: flow cytometry on Oci-AML3 cells, anti-His-PE detection. Half-maximal binding from a four-parameter fit of gMFI. Unit taken from the concentration axis [M]
T1 construct: whole, on cells; Endogenous CD123 on human AML cell lines; also called target antigen CD123
Method: Cellular binding of CD123-binding targeting modules (TM) was tested on CD123 positive target cell lines Oci-AML3 and Molm-13: A) SEQ ID No. 5 to Oci-AML3, B) SEQ ID No. 9 to Oci-AML3, C) SEQ ID No. 4 to Molm-13 and D) SEQ ID No. 6 to Molm-13. The affinity of TMs was analyzed by flow cytometry. The TMs were titrated on an AML cell lines and then detected by a mouse anti-His-tag antibody conjugated to phycoerythrin.
Different concentrations of R-TM123 were incubated with cells, washed and quantified. A dose-response curve was obtained when the geometric mean fluorescence (MFI) was plotted against the TM concentration.

[2] = target: T1, CD123 on CD123 positive AML cells …; assay: cell-based or functional assay
[3] = target: T2, La epitope 5B9 (SEQ ID No. 28) fused to human Fc domain (human, also: fused to human Fc domain, order, isotype, linker not given here); assay: SPR, Biacore X100, La epitope 5B9-human Fc on CM5 chip; KD 5B9 (second number of the cell)
T2 construct: Coupled to a CM5 sensor chip; not shown: human Fc domain
T2 chain: KPLPEVTDEY
Method: Furthermore, binding of different variants of the targeting module according to the invention was analyzed using the La epitope 5B9 (SEQ ID No. 28) fused to human Fc domain which was coupled to a CM5 sensor chip on a Biacore X100 device (FIG. 3). The targeting modules were purified monomers. The targeting modules were concentrated between 2.47 to 200 nM and measured in technical duplicates. For data fitting and KD calculation a two-state-reaction binding model was applied.

[4] = target: T1, CD123 on CD123 positive AML cells …; assay: cell-based or functional assay; remark: listed apart in the source
[5] = target: T1, CD123 on CD123 positive AML cells …; assay: cellular binding assay per table caption, Molm-13 cells
[6] = target: T1, CD123 on CD123 positive AML cells …; assay: cell-based or functional assay; remark: listed apart in the source
[7] = target: T1, CD123 on CD123 positive AML cells …; assay: cellular binding assay per table caption, Oci-AML3 cells
human CD123-Fc = target: T3, human CD123-Fc (human, UniProt P26951 19-305, limits assumed); assay: SPR, Biacore X100, human CD123-Fc on CM5 chip, 1:1 model; KD CD123 (first number of the cell)
T3 construct: Coupled to a CM5 sensor chip; also called soluble recombinant CD123; not shown: Fc part
T3 sequence (looked up): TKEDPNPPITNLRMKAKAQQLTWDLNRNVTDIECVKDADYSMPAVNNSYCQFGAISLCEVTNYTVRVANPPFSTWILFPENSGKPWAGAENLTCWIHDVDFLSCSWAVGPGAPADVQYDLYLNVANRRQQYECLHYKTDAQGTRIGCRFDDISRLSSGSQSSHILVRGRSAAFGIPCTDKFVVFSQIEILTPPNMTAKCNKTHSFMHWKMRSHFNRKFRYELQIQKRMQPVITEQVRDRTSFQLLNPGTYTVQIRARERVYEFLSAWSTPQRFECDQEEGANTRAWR
Method: Binding of different variants of the targeting module according to the invention was analyzed by SPR measurements using human CD123-Fc coupled to a CM5 sensor chip on a Biacore X100 device (FIG. 2). Targeting modules were purified monomer except for the targeting module according to SEQ ID No. 8. […] For data fitting and KD calculation a 1:1 binding model was applied.

[8] = target: T1, CD123 on CD123 positive AML cells …; assay: cell-based or functional assay; remark: listed apart in the source

B1: targeting module according to SEQ ID No. 5 (bispecific antibody)
chain: EVQLQQSGPELVKPGASVKMSCKASGYTFTDYYMKWVKQSHGKSLEWIGDIIPSNGATFYNQKFKGKATLTVDRSSSTAYMHLNSLTSEDSAVYYCTRSHLLRASWFAYWGQGTLVTVSAASGGGGSGGGGSGGGGSDFVMTQSPSSLTVTAGEKVTMSCKSSQSLLNSGNQKNYLTWYLQKPGQPPKLLIYWASTRESGVPDRFTGSGSGTDFTLTISSVQAEDLAVYYCQNDYSYPYTFGGGTKLEIKAAARGDIVMTQSPDSLAVSLGERATINCKSSQSLLNSRTPKNYLAWYQQKPGQPPKLLIYWASTRKSGVPDRFSGSGSGTDFTLTISSLQAEDVAVYYCKQSYNLLTFGGGTKVEIKGGGGSGGGGSGASAAGGGGSGGGGSQVQLVQSGAEVKKPGASVKVSCKASGYTFTHYYIYWVRQAPGQGLEWMGGVNPSNGGTHFNEKFKSRVTMTRDTSISTAYMELSRLRSDDTAVYYCARSEYDYGLGFAYWGQGTLVTVSSGGGGSHHHHHHHH
notes: also called R-TM123; muCD123 + 5B9-VL-VH
Kd [1]: 2.92 nM | EC50 of R-TM123 for RevCAR-T mediated lysis of MOLM-13, Donor #1 [2]: 1.3 pM | EC50 of R-TM123 for RevCAR-T mediated lysis of MOLM-13, Donor #2 [2]: 2.2 pM | EC50 of R-TM123 for RevCAR-T mediated lysis of MOLM-13, Donor #3 [2]: 2.6 pM | EC50 of R-TM123 for RevCAR-T mediated lysis of MOLM-13, Donor #4 [2]: 1 pM | EC50 of R-TM123 for RevCAR-T mediated lysis of MOLM-13, Mean [2]: 1.8 pM | EC50 of R-TM123 for RevCAR-T mediated lysis of MV4-11, Donor #1 [2]: 2.8 pM | EC50 of R-TM123 for RevCAR-T mediated lysis of MV4-11, Donor #2 [2]: 4.2 pM | EC50 of R-TM123 for RevCAR-T mediated lysis of MV4-11, Donor #3 [2]: 3.8 pM | EC50 of R-TM123 for RevCAR-T mediated lysis of MV4-11, Donor #4 [2]: 3.3 pM | EC50 of R-TM123 for RevCAR-T mediated lysis of MV4-11, Mean [2]: 3.5 pM | EC50 of R-TM123 for RevCAR-T mediated lysis of OCI-AML3, Donor #1 [2]: 8.6 pM | EC50 of R-TM123 for RevCAR-T mediated lysis of OCI-AML3, Donor #2 [2]: 6.7 pM | EC50 of R-TM123 for RevCAR-T mediated lysis of OCI-AML3, Donor #3 [2]: 4.9 pM | EC50 of R-TM123 for RevCAR-T mediated lysis of OCI-AML3, Donor #4 [2]: 2.7 pM | EC50 of R-TM123 for RevCAR-T mediated lysis of OCI-AML3, Mean [2]: 5.7 pM | Kd [3]: 3.4 nM | EC50 of R-TM123 for CD25 expression on CD4+ RevCAR-T, co-culture with MOLM-13, Donor #1 [4]: 2.6 pM | EC50 of R-TM123 for CD25 expression on CD4+ RevCAR-T, co-culture with MOLM-13, Donor #2 [4]: 2.2 pM | EC50 of R-TM123 for CD25 expression on CD4+ RevCAR-T, co-culture with MOLM-13, Donor #3 [4]: 2.3 pM | EC50 of R-TM123 for CD25 expression on CD4+ RevCAR-T, co-culture with MOLM-13, Donor #4 [4]: 1.2 pM | EC50 of R-TM123 for CD25 expression on CD4+ RevCAR-T, co-culture with MOLM-13, Mean [4]: 2.1 pM | EC50 of R-TM123 for CD25 expression on CD4+ RevCAR-T, co-culture with MV4-11, Donor #1 [4]: 8 pM | EC50 of R-TM123 for CD25 expression on CD4+ RevCAR-T, co-culture with MV4-11, Donor #2 [4]: 6.5 pM | EC50 of R-TM123 for CD25 expression on CD4+ RevCAR-T, co-culture with MV4-11, Donor #3 [4]: 10.2 pM | EC50 of R-TM123 for CD25 expression on CD4+ RevCAR-T, co-culture with MV4-11, Donor #4 [4]: 8.9 pM | EC50 of R-TM123 for CD25 expression on CD4+ RevCAR-T, co-culture with MV4-11, Mean [4]: 8.4 pM | EC50 of R-TM123 for CD25 expression on CD4+ RevCAR-T, co-culture with OCI-AML3, Donor #1 [4]: 2.9 pM | EC50 of R-TM123 for CD25 expression on CD4+ RevCAR-T, co-culture with OCI-AML3, Donor #2 [4]: 3 pM | EC50 of R-TM123 for CD25 expression on CD4+ RevCAR-T, co-culture with OCI-AML3, Donor #3 [4]: 2.3 pM | EC50 of R-TM123 for CD25 expression on CD4+ RevCAR-T, co-culture with OCI-AML3, Donor #4 [4]: 2.4 pM | EC50 of R-TM123 for CD25 expression on CD4+ RevCAR-T, co-culture with OCI-AML3, Mean [4]: 2.6 pM | EC50 of R-TM123 for CD25 expression on CD8+ RevCAR-T, co-culture with MOLM-13, Donor #1 [4]: 5.2 pM | EC50 of R-TM123 for CD25 expression on CD8+ RevCAR-T, co-culture with MOLM-13, Donor #2 [4]: 4.3 pM | EC50 of R-TM123 for CD25 expression on CD8+ RevCAR-T, co-culture with MOLM-13, Donor #3 [4]: 6 pM | EC50 of R-TM123 for CD25 expression on CD8+ RevCAR-T, co-culture with MOLM-13, Donor #4 [4]: 2.1 pM | EC50 of R-TM123 for CD25 expression on CD8+ RevCAR-T, co-culture with MOLM-13, Mean [4]: 4.4 pM | EC50 of R-TM123 for CD25 expression on CD8+ RevCAR-T, co-culture with MV4-11, Donor #1 [4]: 6.7 pM | EC50 of R-TM123 for CD25 expression on CD8+ RevCAR-T, co-culture with MV4-11, Donor #2 [4]: 4.3 pM | EC50 of R-TM123 for CD25 expression on CD8+ RevCAR-T, co-culture with MV4-11, Donor #3 [4]: 7.2 pM | EC50 of R-TM123 for CD25 expression on CD8+ RevCAR-T, co-culture with MV4-11, Donor #4 [4]: 5.1 pM | EC50 of R-TM123 for CD25 expression on CD8+ RevCAR-T, co-culture with MV4-11, Mean [4]: 5.8 pM | EC50 of R-TM123 for CD25 expression on CD8+ RevCAR-T, co-culture with OCI-AML3, Donor #1 [4]: 8.7 pM | EC50 of R-TM123 for CD25 expression on CD8+ RevCAR-T, co-culture with OCI-AML3, Donor #2 [4]: 15.7 pM | EC50 of R-TM123 for CD25 expression on CD8+ RevCAR-T, co-culture with OCI-AML3, Donor #3 [4]: 14.6 pM | EC50 of R-TM123 for CD25 expression on CD8+ RevCAR-T, co-culture with OCI-AML3, Donor #4 [4]: 4.8 pM | EC50 of R-TM123 for CD25 expression on CD8+ RevCAR-T, co-culture with OCI-AML3, Mean [4]: 11 pM | EC50 [5]: 1.2 pM | EC50 of R-TM123 for lysis of primary AML cells AML 1 by RevCAR-T, Donor #2 [6]: 3.4 pM | EC50 of R-TM123 for lysis of primary AML cells AML 1 by RevCAR-T, Donor #3 [6]: 2.9 pM | EC50 of R-TM123 for lysis of primary AML cells AML 1 by RevCAR-T, Donor #4 [6]: 1.8 pM | EC50 of R-TM123 for lysis of primary AML cells AML 1 by RevCAR-T, Mean [6]: 2.7 pM | EC50 of R-TM123 for lysis of primary AML cells AML 3 by RevCAR-T, Donor #2 [6]: 3 pM | EC50 of R-TM123 for lysis of primary AML cells AML 3 by RevCAR-T, Donor #3 [6]: 3.8 pM | EC50 of R-TM123 for lysis of primary AML cells AML 3 by RevCAR-T, Donor #4 [6]: 2.2 pM | EC50 of R-TM123 for lysis of primary AML cells AML 3 by RevCAR-T, Mean [6]: 3 pM | EC50 of R-TM123 for lysis of primary AML cells AML 4 by RevCAR-T, Donor #2 [6]: 1.7 pM | EC50 of R-TM123 for lysis of primary AML cells AML 4 by RevCAR-T, Donor #3 [6]: 3.1 pM | EC50 of R-TM123 for lysis of primary AML cells AML 4 by RevCAR-T, Donor #4 [6]: 1.8 pM | EC50 of R-TM123 for lysis of primary AML cells AML 4 by RevCAR-T, Mean [6]: 2.2 pM | EC50 of R-TM123 for lysis of primary AML cells AML 5 by RevCAR-T, Donor #2 [6]: 2.2 pM | EC50 of R-TM123 for lysis of primary AML cells AML 5 by RevCAR-T, Donor #3 [6]: 3.6 pM | EC50 of R-TM123 for lysis of primary AML cells AML 5 by RevCAR-T, Donor #4 [6]: 2.1 pM | EC50 of R-TM123 for lysis of primary AML cells AML 5 by RevCAR-T, Mean [6]: 2.6 pM | EC50 [7]: 3 pM | Kd (human CD123-Fc): 0.023 nM | EC50 of R-TM123 for GM-CSF release by RevCAR-T, co-culture with MOLM-13 [8]: 37.7 pM | EC50 of R-TM123 for Granzyme B release by RevCAR-T, co-culture with MOLM-13 [8]: 4.4 pM | EC50 of R-TM123 for IFN-γ release by RevCAR-T, co-culture with MOLM-13 [8]: 19.3 pM | EC50 of R-TM123 for IL-2 release by RevCAR-T, co-culture with MOLM-13 [8]: 63.9 pM | EC50 of R-TM123 for IL-4 release by RevCAR-T, co-culture with MOLM-13 [8]: 54.2 pM | EC50 of R-TM123 for Perforin release by RevCAR-T, co-culture with MOLM-13 [8]: 3.7 pM | EC50 of R-TM123 for TNF-α release by RevCAR-T, co-culture with MOLM-13 [8]: 53.9 pM
